Tested on: whole blood samples (extrinsic coagulation pathway)
Assay: Thromboelastogram (TEG) coagulation test on disposable test strip
Type: biochemical
Conditions: blood samples with increasing concentrations, 0 to 1.8 nM; FIG. 19(b)
Experimental: The disposable test strips used in this example were incorporated with a reagent comprising of rabbit brain thromboplastin (Pacific Hemostasis Prothrombin Time reagent, Thromboplastin-DS, Product# 29-227-3), calcium chloride (25 mM) and Tween (2% v/v aqueous solution). Prior to the final assembly of the strip, the reagent was incorporated by dispensing the solution on to the exposed hydrophilic surface in the bottom stack, followed by air-drying in a drying box with humidity control at standard room temperature and pressure. The ratio of the volume of the reagent to blood tested in the chamber was maintained at close to 2:1 to ensure successful initiation of the blood coagulation reaction. […] Lastly, in some tests, blood samples were also tested using 2 Haemonetics' TEG-5000 instruments (2 tests per instrument) and their corresponding TEG curve & parameters were recorded, in order to perform side-by-side comparison with the results generated using the disposable test strips. Results: • In this example, the oscillation characteristics (amplitude and phase) of the in-plane vibration mode of a physical element in single-use disposable test strips were measured as a function of frequency in the vicinity of the resonance frequency, and these amplitude & phase frequency scans were monitored periodically to determine different aspects of the blood coagulation cascade. […]

B1: tPA: tissue plasminogen activator, enhances the external fibrinolysis process (protein, UniProt P00750 36-562, looked up)
Tissue-type plasminogen …: SYQVICRDEKTQMIYQQHQSWLRPVLRSNRVEYCWCNSGRAQCHSVPVKSCSEPRCFNGGTCQQALYFSDFVCQCPEGFAGKCCEIDTRATCYEDQGISYRGTWSTAESGAECTNWNSSALAQKPYSGRRPDAIRLGLGNHNYCRNPDRDSKPWCYVFKAGKYSSEFCSTPACSEGNSDCYFGNGSAYRGTHSLTESGASCLPWNSMILIGKVYTAQNPSAQALGLGKHNYCRNPDGDAKPWCHVLKNRRLTWEYCDVPSCSTCGLRQYSQPQFRIKGGLFADIASHPWQAAIFAKHRRSPGERFLCGGILISSCWILSAAHCFQERFPPHHLTVILGRTYRVVPGEEEQKFEVEKYIVHKEFDDDTYDNDIALLQLKSDSSRCAQESSVVRTVCLPPADLQLPDWTECELSGYGKHEALSPFYSERLKEAHVRLYPSSRCTSQHLLNRTVTDNMLCAGDTRSGGPQANLHDACQGDSGGPLVCLNDGRMTLVGIISWGLGCGQKDVPGVYTKVTNYLDWIRDNMRP
fibrinolysis rate Lys-Rate: increasing trend
